From patent US20230346916A1 (NEW YORK BLOOD CENTER, published 2023)

Columns and labels:
[1] = biological target: T1, SARS-CoV-2 RBD-Fc fusion protein (residues 331-524 of SARS-CoV-2 S protein with a C-terminal Fc of human IgG1) (SARS-CoV-2; human); assay: flow cytometry on hDPP4/293T cells
T1 construct: also called SARS-CoV-2 RBD protein; SARS-CoV-2 RBD-Fc protein

[2] = biological target: T1, SARS-CoV-2 RBD-Fc fusion protein …; assay: ELISA, RBD-Fc coated at 1 µg/ml, sDPP4 serially diluted

Row | Binder | binding result [1] | binding result [2]
1 | human DPP4 (hDPP4) receptor expressed on 293T cells (receptor, whole, on cells) MKTPWKVLLGLLGAAALVTIITVPVVLLNKGTDDATADSRKTYTLTDYLKNTYRLKLYSLRWISDHEYLYKQENNILVFNAEYGNSSVFLENSTFDEFGHSINDYSISPDGQFILLEYNYVKQWRHSYTASYDIYDLNKRQLITEERIPNNTQWVTWSPVGHKLAYVWNNDIYVKIEPNLPSYRITWTGKEDIIYNGITDWVYEEEVFSAYSALWWSPNGTFLAYAQFNDTEVPLIEYSFYSDESLQYPKTVRVPYPKAGAVNPTVKFFVVNTDSLSSVTNATSIQITAPASMLIGDHYLCDVTWATQERISLQWLRRIQNYSVMDICDYDESSGRWNCLVARQHIEMSTTGWVGRFRPSEPHFTLDGNSFYKIISNEEGYRHICYFQIDKKDCTFITKGTWEVIGIEALTSDYLYYISNEYKGMPGGRNLYKIQLSDYTKVTCLSCELNPERCQYYSVSFSKEAKYYQLRCSGPGLPLYTLHSSVNDKGLRVLEDNSALDKMLQNVQMPSKKLDFIILNETKFWYQMILPPHFDKSKKYPLLLDVYAGPCSQKADTVFRLNWATYLASTENIIVASFDGRGSGYQGDKIMHAINRRLGTFEVEDQIEAARQFSKMGFVDNKRIAIWGWSYGGYVTSMVLGSGSGVFKCGIAVAPVSRWEYYDSVYTERYMGLPTPEDNLDHYRNSTVMSRAENFKQVEYLLIHGTADDNVHFQQSAQISKALVDVGVDFQAMWYTDEDHGIASSTAHQHIYTHMSHFIKQCFSLP | no binding (tested: 20 µg/ml) | 
2 | soluble human DPP4 (sDPP4) receptor (receptor, also called hDPP4 in solution) SRKTYTLTDYLKNTYRLKLYSLRWISDHEYLYKQENNILVFNAEYGNSSVFLENSTFDEFGHSINDYSISPDGQFILLEYNYVKQWRHSYTASYDIYDLNKRQLITEERIPNNTQWVTWSPVGHKLAYVWNNDIYVKIEPNLPSYRITWTGKEDIIYNGITDWVYEEEVFSAYSALWWSPNGTFLAYAQFNDTEVPLIEYSFYSDESLQYPKTVRVPYPKAGAVNPTVKFFVVNTDSLSSVTNATSIQITAPASMLIGDHYLCDVTWATQERISLQWLRRIQNYSVMDICDYDESSGRWNCLVARQHIEMSTTGWVGRFRPSEPHFTLDGNSFYKIISNEEGYRHICYFQIDKKDCTFITKGTWEVIGIEALTSDYLYYISNEYKGMPGGRNLYKIQLSDYTKVTCLSCELNPERCQYYSVSFSKEAKYYQLRCSGPGLPLYTLHSSVNDKGLRVLEDNSALDKMLQNVQMPSKKLDFIILNETKFWYQMILPPHFDKSKKYPLLLDVYAGPCSQKADTVFRLNWATYLASTENIIVASFDGRGSGYQGDKIMHAINRRLGTFEVEDQIEAARQFSKMGFVDNKRIAIWGWSYGGYVTSMVLGSGSGVFKCGIAVAPVSRWEYYDSVYTERYMGLPTPEDNLDHYRNSTVMSRAENFKQVEYLLIHGTADDNVHFQQSAQISKALVDVGVDFQAMWYTDEDHGIASSTAHQHIYTHMSHFIKQCFSLP |  | no binding
